From patent US20260265347A1 come the findings set out here.

The experiment deals with biotinylated VP1 pentamer of BKV genotype I (BK virus genotype I) (UniProt P03088). Put plainly: BLI, biotinylated VP1 pentamer on streptavidin sensor, mAb 0 to 40 nM.

What is called Kd is a measure of binding affinity in units of concentration. Read a high Kd as a looser complex.

Take “MTX005 from Memo Therapeutics AG (referred as 319C07 in WO2021/250097) (antibody)”: the Kd came to 17.9 nM.
